Key:
[1] = target: hnRNP-U RNA-binding domain (human, UniProt Q00839 673-825); assay: fluorescence polarization; 25 C; apparent Kd; FP with 5 nM ligand at 25 C (some FPCD at 4 C); buffer for MS2-CP (BB6): 100 mM Tris pH 7.5, 10 mM MgCl2, 80 mM KCl, 0.1 mg/mL BSA; other buffers not in material; details: protein: recombinant; tags: N-terminal His-MBP fusion; label: fluorophore, 3' by name; G-quadruplex
TREX1 catalytic core = target: T1, TREX1 catalytic core (murine, UniProt Q91XB0 1-242); assay: as above; details: protein: recombinant; tags: MBP fusion, cleaved by protease; chain copies: 2; label: 5' fluorophore (FP)
T1 sequence: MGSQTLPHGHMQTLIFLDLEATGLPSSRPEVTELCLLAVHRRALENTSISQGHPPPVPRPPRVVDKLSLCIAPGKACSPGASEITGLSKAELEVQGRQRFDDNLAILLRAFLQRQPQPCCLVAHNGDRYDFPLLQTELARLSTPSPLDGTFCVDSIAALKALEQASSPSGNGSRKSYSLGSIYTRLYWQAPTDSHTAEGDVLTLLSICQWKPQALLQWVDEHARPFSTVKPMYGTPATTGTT

TREX1 R174A,K175A = target: T2, TREX1 R174A,K175A (murine, UniProt Q91XB0 1-242, R174A;K175A); assay: as above; details: protein: recombinant; tags: MBP fusion, cleaved by protease (similar to WT); chain copies: 2; label: 5' fluorophore (FP)
T2 sequence: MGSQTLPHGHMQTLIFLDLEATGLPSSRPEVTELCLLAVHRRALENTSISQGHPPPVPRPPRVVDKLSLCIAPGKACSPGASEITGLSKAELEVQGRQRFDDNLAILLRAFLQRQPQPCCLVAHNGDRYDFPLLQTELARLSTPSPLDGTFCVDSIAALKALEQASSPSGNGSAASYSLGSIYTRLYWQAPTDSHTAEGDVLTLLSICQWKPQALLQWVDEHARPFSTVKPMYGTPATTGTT

[2] = target: T3, MS2 coat protein V75E,A81G (MS2 bacteriophage, UniProt P03612 2-130, V76E;A82G); assay: competition; displaces [F]RNA2MS2; FP with 5 nM ligand at 25 C (some FPCD at 4 C); buffer for MS2-CP (BB6): 100 mM Tris pH 7.5, 10 mM MgCl2, 80 mM KCl, 0.1 mg/mL BSA; other buffers not in material; details: protein: recombinant; tags: HisMBP fusion with 3C protease site; chain copies: 2; hairpin
FBF-2 RNA-binding domain = target: T4, FBF-2 RNA-binding domain (Caenorhabditis elegans, UniProt Q09312 164-575); assay: fluorescence polarization; 25 C; apparent Kd; FP with 5 nM ligand at 25 C (some FPCD at 4 C); buffer for MS2-CP (BB6): 100 mM Tris pH 7.5, 10 mM MgCl2, 80 mM KCl, 0.1 mg/mL BSA; other buffers not in material; details: protein: recombinant; label: 5' 6-FAM
T4 sequence: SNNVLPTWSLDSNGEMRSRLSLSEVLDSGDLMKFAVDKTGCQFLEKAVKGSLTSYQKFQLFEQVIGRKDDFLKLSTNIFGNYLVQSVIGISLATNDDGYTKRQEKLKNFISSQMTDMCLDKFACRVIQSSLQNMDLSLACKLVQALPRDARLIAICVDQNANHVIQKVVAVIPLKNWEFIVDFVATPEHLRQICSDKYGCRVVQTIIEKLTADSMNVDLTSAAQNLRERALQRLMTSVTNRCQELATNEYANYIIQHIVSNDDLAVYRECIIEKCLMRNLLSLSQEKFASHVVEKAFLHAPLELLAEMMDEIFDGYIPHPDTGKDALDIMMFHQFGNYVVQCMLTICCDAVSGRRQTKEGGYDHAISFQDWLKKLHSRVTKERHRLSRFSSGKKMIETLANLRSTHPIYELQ

[3] = target: T3, MS2 coat protein V75E,A81G; assay: fluorescence polarization; 25 C; apparent Kd, ligand 5 nM >= Kd so true Kd may be lower; FP with 5 nM ligand at 25 C (some FPCD at 4 C); buffer for MS2-CP (BB6): 100 mM Tris pH 7.5, 10 mM MgCl2, 80 mM KCl, 0.1 mg/mL BSA; other buffers not in material; details: protein: recombinant; tags: HisMBP fusion with 3C protease site; chain copies: 2; label: fluorophore; hairpin

hnRNP-U RNA-binding domain, sequence (Q00839 673-825): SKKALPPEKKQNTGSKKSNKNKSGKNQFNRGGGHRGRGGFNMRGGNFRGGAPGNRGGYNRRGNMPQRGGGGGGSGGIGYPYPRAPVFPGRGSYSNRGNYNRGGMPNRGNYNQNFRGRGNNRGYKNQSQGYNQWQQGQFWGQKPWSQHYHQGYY

Work on GGGAAGGGAAGGGAAGGGAA (structured_RNA) [r(G3A2)4[F]] yielded a Kd [1] of 15 ± 4.8 nM.

For GACTG (ssDNA) [[F]d(N)5], the Kd (TREX1 catalytic core) was 8.9 ± 3.8 nM and the Kd (TREX1 R174A,K175A) was 46 ± 16 nM.

GGGACUGAGGAUCACCCAGUCUAU (structured_RNA) [RNA1MS2]: binds [2].

For AACAUGUGCCAUA (ssRNA) [[F]RNAPUF], the Kd (FBF-2 RNA-binding domain) was 50 ± 9.2 nM.

GGACAUGAGGAUCACCCAUGU (structured_RNA) [[F]RNA2MS2] showed a Kd [3] of 2.9 ± 0.62 nM.

Reference: publication PMC10293810, “Multiple RNA- and DNA-binding proteins exhibit direct transfer of polynucleotides with implications for target-site search”
